Data published in PMC9133112, “The structural basis of Cdc7-Dbf4 kinase dependent targeting and phosphorylation of the MCM2-7 double hexamer” (Nature Communications, 2022).

T1: Mcm4 (Saccharomyces cerevisiae, UniProt P30665 1-933)
T1 construct: Mcm4, Saccharomyces cerevisiae, full length; Subunit of m2, written alone for the contacts seen in the cryo-EM structures
T1 sequence (looked up): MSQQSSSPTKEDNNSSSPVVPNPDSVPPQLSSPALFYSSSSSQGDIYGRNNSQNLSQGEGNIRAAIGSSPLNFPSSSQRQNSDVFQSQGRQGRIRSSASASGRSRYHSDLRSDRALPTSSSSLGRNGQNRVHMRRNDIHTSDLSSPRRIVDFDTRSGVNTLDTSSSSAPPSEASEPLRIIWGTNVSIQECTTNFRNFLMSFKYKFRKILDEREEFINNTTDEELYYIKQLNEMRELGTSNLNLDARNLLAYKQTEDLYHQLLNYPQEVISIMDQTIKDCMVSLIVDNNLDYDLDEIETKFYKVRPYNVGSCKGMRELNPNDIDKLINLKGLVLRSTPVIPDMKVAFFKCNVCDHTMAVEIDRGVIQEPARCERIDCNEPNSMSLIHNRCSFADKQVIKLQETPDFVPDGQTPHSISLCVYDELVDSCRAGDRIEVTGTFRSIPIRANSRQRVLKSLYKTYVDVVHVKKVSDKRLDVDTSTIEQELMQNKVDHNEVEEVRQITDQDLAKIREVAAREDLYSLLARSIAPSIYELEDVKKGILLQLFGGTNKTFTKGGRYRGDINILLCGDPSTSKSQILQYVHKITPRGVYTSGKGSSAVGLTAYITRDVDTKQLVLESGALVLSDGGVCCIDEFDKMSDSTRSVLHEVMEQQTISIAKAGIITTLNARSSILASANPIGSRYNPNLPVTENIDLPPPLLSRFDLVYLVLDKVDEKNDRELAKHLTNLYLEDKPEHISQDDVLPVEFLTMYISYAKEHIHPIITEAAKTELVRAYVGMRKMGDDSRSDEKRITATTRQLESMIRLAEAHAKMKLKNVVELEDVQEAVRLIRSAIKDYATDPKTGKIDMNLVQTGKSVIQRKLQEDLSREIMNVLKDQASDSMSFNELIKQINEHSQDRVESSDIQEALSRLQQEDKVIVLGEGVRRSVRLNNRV

T2: Mcm7 (Saccharomyces cerevisiae, UniProt P38132 1-845)
T2 construct: Mcm7, Saccharomyces cerevisiae, full length; Subunit of m2, written alone for the contacts seen in the cryo-EM structures
T2 sequence (looked up): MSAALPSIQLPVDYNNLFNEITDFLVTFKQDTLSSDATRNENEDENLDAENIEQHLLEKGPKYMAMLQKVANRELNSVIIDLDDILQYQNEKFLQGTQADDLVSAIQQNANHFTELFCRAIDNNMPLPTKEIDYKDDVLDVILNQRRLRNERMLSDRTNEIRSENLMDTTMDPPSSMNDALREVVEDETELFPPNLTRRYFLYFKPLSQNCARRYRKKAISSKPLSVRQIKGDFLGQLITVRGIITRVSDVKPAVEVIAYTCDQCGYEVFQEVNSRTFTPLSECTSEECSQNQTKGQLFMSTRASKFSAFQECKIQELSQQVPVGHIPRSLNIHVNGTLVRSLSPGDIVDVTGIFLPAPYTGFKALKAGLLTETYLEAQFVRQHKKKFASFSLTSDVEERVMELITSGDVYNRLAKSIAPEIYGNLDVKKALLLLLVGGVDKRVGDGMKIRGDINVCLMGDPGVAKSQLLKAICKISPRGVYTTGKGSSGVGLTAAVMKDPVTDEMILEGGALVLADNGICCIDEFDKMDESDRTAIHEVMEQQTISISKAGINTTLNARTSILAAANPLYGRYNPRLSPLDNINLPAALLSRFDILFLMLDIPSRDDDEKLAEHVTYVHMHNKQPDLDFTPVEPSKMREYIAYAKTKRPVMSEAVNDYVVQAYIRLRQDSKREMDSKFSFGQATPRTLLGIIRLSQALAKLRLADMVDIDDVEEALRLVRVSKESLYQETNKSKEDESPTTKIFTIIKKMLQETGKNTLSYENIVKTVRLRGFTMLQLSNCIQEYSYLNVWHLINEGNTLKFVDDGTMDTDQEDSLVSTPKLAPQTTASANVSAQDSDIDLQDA

T3: Mcm2 (Saccharomyces cerevisiae, UniProt P29469 1-868)
T3 construct: Mcm2, Saccharomyces cerevisiae, full length; Subunit of m2, written alone for the contacts seen in the cryo-EM structures
T3 sequence (looked up): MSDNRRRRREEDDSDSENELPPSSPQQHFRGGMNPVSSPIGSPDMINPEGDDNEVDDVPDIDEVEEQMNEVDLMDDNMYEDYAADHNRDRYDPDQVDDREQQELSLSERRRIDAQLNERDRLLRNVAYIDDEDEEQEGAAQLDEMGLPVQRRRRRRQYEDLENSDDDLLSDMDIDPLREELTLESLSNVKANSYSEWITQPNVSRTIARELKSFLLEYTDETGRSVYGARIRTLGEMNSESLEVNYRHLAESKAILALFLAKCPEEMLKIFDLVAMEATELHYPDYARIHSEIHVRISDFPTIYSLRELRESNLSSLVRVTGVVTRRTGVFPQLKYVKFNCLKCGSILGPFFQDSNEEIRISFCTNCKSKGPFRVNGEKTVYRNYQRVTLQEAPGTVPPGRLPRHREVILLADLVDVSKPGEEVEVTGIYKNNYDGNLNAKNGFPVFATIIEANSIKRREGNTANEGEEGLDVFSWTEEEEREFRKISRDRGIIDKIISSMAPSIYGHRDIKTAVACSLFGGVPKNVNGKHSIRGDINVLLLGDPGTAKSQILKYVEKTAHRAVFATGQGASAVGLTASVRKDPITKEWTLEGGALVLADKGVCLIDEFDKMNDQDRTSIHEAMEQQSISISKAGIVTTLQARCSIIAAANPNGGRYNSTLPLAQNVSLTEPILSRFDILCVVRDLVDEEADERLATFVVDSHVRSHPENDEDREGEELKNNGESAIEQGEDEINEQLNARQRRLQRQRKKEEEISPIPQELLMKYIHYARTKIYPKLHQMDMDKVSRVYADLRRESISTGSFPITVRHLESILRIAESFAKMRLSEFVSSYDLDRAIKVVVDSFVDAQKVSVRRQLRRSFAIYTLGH

B1: Dbf4 (natural protein, Saccharomyces cerevisiae, UniProt P32325 1-704, looked up)
chain: MVSPTKMIIRSPLKETDTNLKHNNGIAASTTAAGHLNVFSNDNNCNNNNTTESFPKKRSLERLELQQQQHLHEKKRARIERARSIEGAVQVSKGTGLKNVEPRVTPKELLEWQTNWKKIMKRDSRIYFDITDDVEMNTYNKSKMDKRRDLLKRGFLTLGAQITQFFDTTVTIVITRRSVENIYLLKDTDILSRAKKNYMKVWSYEKAARFLKNLDVDLDHLSKTKSASLAAPTLSNLLHNEKLYGPTDRDPRTKRDDIHYFKYPHVYLYDLWQTWAPIITLEWKPQELTNLDELPYPILKIGSFGRCPFIGDRNYDESSYKRVVKRYSRDKANKKYALQLRALFQYHADTLLNTSSVNDQTKNLIFIPHTCNDSTKSFKKWMQEKAKNFEKTELKKTDDSAVQDVRNEHADQTDEKNSILLNETETKEPPLKEEKENKQSIAEESNKYPQRKELAATPKLNHPVLATFARQETEEVPDDLCTLKTKSRQAFEIKASGAHQSNDVATSFGNGLGPTRASVMSKNMKSLSRLMVDRKLGVKQTNGNNKNYTATIATTAETSKENRHRLDFNALKKDEAPSKETGKDSAVHLETNRKPQNFPKVATKSVSADSKVHNDIKITTTESPTASKKSTSTNVTLHFNAQTAQTAQPVKKETVKNSGYCENCRVKYESLEQHIVSEKHLSFAENDLNFEAIDSLIENLRFQI
notes: Dbf4, Saccharomyces cerevisiae, full length (41% resolved in the map); Subunit of m1, written alone for the contacts seen in the cryo-EM structures; also called dumbbell former 4; source: budding yeast cells, purified as subunit of DDK
B2: Cdc7 (enzyme, Saccharomyces cerevisiae, UniProt P06243 1-507, looked up)
chain: MTSKTKNIDDIPPEIKEEMIQLYHDLPGIENEYKLIDKIGEGTFSSVYKAKDITGKITKKFASHFWNYGSNYVALKKIYVTSSPQRIYNELNLLYIMTGSSRVAPLCDAKRVRDQVIAVLPYYPHEEFRTFYRDLPIKGIKKYIWELLRALKFVHSKGIIHRDIKPTNFLFNLELGRGVLVDFGLAEAQMDYKSMISSQNDYDNYANTNHDGGYSMRNHEQFCPCIMRNQYSPNSHNQTPPMVTIQNGKVVHLNNVNGVDLTKGYPKNETRRIKRANRAGTRGFRAPEVLMKCGAQSTKIDIWSVGVILLSLLGRRFPMFQSLDDADSLLELCTIFGWKELRKCAALHGLGFEASGLIWDKPNGYSNGLKEFVYDLLNKECTIGTFPEYSVAFETFGFLQQELHDRMSIEPQLPDPKTNMDAVDAYELKKYQEEIWSDHYWCFQVLEQCFEMDPQKRSSAEDLLKTPFFNELNENTYLLDGESTDEDDVVSSSEADLLDKDVLLISE
notes: Cdc7 serine/threonine kinase, Saccharomyces cerevisiae, full length (87% resolved in the map); Subunit of m1, written alone for the contacts seen in the cryo-EM structures; also called Cdc7 kinase; Cdc7 serine/threonine kinase; source: budding yeast cells, purified as subunit of DDK

How the values were obtained:
Experiment in all cases: cryo-EM structure; MD-(ATPγS): 250 nM DH released from beads by AluI + 750 nM DDK, 10 min 24 °C, buffer C with 3 mM ATPγS; GraFix glycerol gradient with glutaraldehyde; states I-III
Conditions in all cases: both partners purified
[1] = biological target: T1, Mcm4
[2] = biological target: T4, Mcm6 (Saccharomyces cerevisiae, UniProt P53091 1-1017)
T4 construct: Mcm6, Saccharomyces cerevisiae, full length; Subunit of m2, written alone for the contacts seen in the cryo-EM structures

[3] = biological target: T2, Mcm7
[4] = biological target: T3, Mcm2
[5] = biological target: B1

T4 sequence (P53091 whole entry): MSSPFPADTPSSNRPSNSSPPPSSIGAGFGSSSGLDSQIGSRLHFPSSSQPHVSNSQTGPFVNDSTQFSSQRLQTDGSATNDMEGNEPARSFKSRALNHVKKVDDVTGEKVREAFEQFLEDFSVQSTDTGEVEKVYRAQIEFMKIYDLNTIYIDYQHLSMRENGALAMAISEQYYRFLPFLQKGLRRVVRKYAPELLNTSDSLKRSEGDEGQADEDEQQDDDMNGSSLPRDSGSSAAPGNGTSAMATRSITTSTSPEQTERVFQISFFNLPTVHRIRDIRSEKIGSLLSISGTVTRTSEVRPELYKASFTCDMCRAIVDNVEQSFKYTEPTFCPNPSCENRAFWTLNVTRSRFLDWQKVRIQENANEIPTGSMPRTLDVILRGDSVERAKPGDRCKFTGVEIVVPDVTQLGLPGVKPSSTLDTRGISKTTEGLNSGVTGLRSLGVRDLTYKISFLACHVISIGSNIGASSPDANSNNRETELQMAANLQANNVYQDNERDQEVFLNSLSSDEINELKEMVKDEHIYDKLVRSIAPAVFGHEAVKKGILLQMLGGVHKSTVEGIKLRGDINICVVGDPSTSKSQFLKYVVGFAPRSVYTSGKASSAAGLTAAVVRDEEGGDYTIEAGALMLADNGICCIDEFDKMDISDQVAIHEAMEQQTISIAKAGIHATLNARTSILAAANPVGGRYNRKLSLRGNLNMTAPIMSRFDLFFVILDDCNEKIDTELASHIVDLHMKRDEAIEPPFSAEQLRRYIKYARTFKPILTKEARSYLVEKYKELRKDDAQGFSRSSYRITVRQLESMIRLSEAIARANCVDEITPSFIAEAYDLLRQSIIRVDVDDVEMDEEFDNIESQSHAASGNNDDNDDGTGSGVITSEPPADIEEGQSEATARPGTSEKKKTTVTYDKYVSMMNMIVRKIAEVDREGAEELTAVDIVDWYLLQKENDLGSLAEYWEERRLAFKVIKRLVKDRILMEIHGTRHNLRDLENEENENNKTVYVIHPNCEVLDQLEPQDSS

binding result [1] | binding result [2] | binding result [3] | binding result [4] | binding result [5] | Binder
binds | binds | binds | binds | – | B1
binds | – | – | – | binds | B2
